What was measured:
Experiment in all cases: purified protein
Assay type in all cases: biochemical, Aspergillus oryzae
purified protein [1] = substrate: O=[N+]([O-])c1ccc(O[C@H]2O[C@H](CO)[C@@H](O[C@H]3O[C@H](CO)[C@@H](O[C@H]4O[C@H](CO)[C@@H](O[C@H]5O[C@H](CO)[C@@H](O[C@H]6O[C@H](CO)[C@@H](O)[C@H](O)[C@H]6O)[C@H](O)[C@H]5O)[C@H](O)[C@H]4O)[C@H](O)[C@H]3O)[C@H](O)[C@H]2O)cc1; conditions: 50 mM sodium acetate pH 5.5, 40°C, apparent value, hydrolysis plus transglycosylation, 1.6–100 mM substrate
purified protein [2] = substrate: O=[N+]([O-])c1ccc(O[C@H]2O[C@H](CO)[C@@H](O[C@H]3O[C@H](CO)[C@@H](O[C@H]4O[C@H](CO)[C@@H](O[C@H]5O[C@H](CO)[C@@H](O[C@H]6O[C@H](CO)[C@@H](O[C@H]7O[C@H](CO)[C@@H](O)[C@H](O)[C@H]7O)[C@H](O)[C@H]6O)[C@H](O)[C@H]5O)[C@H](O)[C@H]4O)[C@H](O)[C@H]3O)[C@H](O)[C@H]2O)cc1; conditions: 50 mM sodium acetate pH 5.5, 40°C, apparent value, hydrolysis plus transglycosylation, 1.6–50 mM substrate
purified protein [3] = substrate: O=[N+]([O-])c1ccc(O[C@H]2O[C@H](CO)[C@@H](O[C@H]3O[C@H](CO)[C@@H](O[C@H]4O[C@H](CO)[C@@H](O[C@H]5O[C@H](CO)[C@@H](O[C@H]6O[C@H](CO)[C@@H](O[C@H]7O[C@H](CO)[C@@H](O[C@H]8O[C@H](CO)[C@@H](O)[C@H](O)[C@H]8O)[C@H](O)[C@H]7O)[C@H](O)[C@H]6O)[C@H](O)[C@H]5O)[C@H](O)[C@H]4O)[C@H](O)[C@H]3O)[C@H](O)[C@H]2O)cc1; conditions: 50 mM sodium acetate pH 5.5, 40°C, apparent value, hydrolysis plus transglycosylation, 1.6–50 mM substrate
purified protein [4] = substrate: O=[N+]([O-])c1ccc(O[C@H]2O[C@H](CO)[C@@H](O[C@H]3O[C@H](CO)[C@@H](O[C@H]4O[C@H](CO)[C@@H](O[C@H]5O[C@H](CO)[C@@H](O[C@H]6O[C@H](CO)[C@@H](O[C@H]7O[C@H](CO)[C@@H](O[C@H]8O[C@H](CO)[C@@H](O[C@H]9O[C@H](CO)[C@@H](O)[C@H](O)[C@H]9O)[C@H](O)[C@H]8O)[C@H](O)[C@H]7O)[C@H](O)[C@H]6O)[C@H](O)[C@H]5O)[C@H](O)[C@H]4O)[C@H](O)[C@H]3O)[C@H](O)[C@H]2O)cc1; conditions: 50 mM sodium acetate pH 5.5, 40°C, apparent value, hydrolysis plus transglycosylation, 1.6–25 mM substrate

B1: rAoAgtA (Aspergillus oryzae RIB40) (protein)
chain: ATTAEWKSRSVYQTMTDRFARTDGSTTAPCNTTQGLYCGGTWRGTIDKLDYIQGMGFDAVMISPIVENIEGRVSYGEAYHGYWPLDLYSLNSHFGTHQDLLDLSEALHSRGMYLMMDTVINNMAYMTNGKDPAKNIDYSVFTPFNDSSYFHPYCKITDWNNYTNAQLCQTGDDKVALPDLFTEHEDVQQILEKWAKEIISTYSIDGLRIDAAKHVNPGFLKNFGDAIGAFMTGEVLQQEVDTICKYQNNYIGSVPNYPIYYSVLKAFTLGNTTDLANQVEIMKNSCDDVTALASFSENHDVARFASMTDDMALAKNVLTFTILYDGVPMIYQGQEQHLDGPGTPDNREAIWLTKYNTDAELYKLIAKLNTIRKHAYKLDPNYVSLQTYPIFRGGSELGFRKGVEGRQVVMLLSTQGSNSSAYNLTLPVSFNGGVQVMDVLNCVNYTVNPQSELIVPMDKGEPRVFFPTSLMPGSGLCGYTTANVSFVELKTKGAA
notes: residues 24-518 of 549 (signal peptide 1-23 and C-terminal GPI-anchor region removed), C-terminal PGGGS linker and His6 tag; secreted from Pichia pastoris SMD1168H with alpha-factor signal
B1 was tested, and the Km (purified protein [1]) was 61.8 mM, the Vmax (purified protein [1]) was 659 µM/min and the kcat (purified protein [1]) was 60 s⁻¹. For the same protein, the kcat/Km (purified protein [1]) was 970 M⁻¹ s⁻¹, the Km (purified protein [2]) was 45.6 mM and the Vmax (purified protein [2]) was 710 µM/min. The kcat (purified protein [2]) was 64.6 s⁻¹, the kcat/Km (purified protein [2]) was 1420 M⁻¹ s⁻¹ and the Km (purified protein [3]) was 28.9 mM. For the same protein, the Vmax (purified protein [3]) was 402 µM/min, the kcat (purified protein [3]) was 36.7 s⁻¹ and the kcat/Km (purified protein [3]) was 1270 M⁻¹ s⁻¹. It also gave a Km (purified protein [4]) of 25.1 mM, a Vmax (purified protein [4]) of 344 µM/min and a kcat (purified protein [4]) of 31.3 s⁻¹. For the same protein, the kcat/Km (purified protein [4]) was 1250 M⁻¹ s⁻¹.

Source: paper PMC10512346, “Cleavage of α-1,4-glycosidic linkages by the glycosylphosphatidylinositol-anchored α-amylase AgtA decreases the molecular weight of cell wall α-1,3-glucan in Aspergillus oryzae” (Frontiers in Fungal Biology, 2023)
